The values that follow come from PMC5816949, “Highly Sensitive Colorimetric Biosensor for Staphylococcal Enterotoxin B by a Label-Free Aptamer and Gold Nanoparticles”.

The target in data set [1] is Staphylococcal enterotoxin B (SEB, r-SEB) (Staphylococcus aureus, UniProt P01552 28-266).
Data set [2] has the same target. The data set is described as follows: AuNP colorimetric aggregation assay; 240 nM random DNA. As to conditions: protein: recombinant; label: none.

Where two headings read alike, the source gives them in different places.

B1: SEB2 aptamer (ssDNA)
DNA: TAGCTCACTCATTAGGCACGGGTAGGCCATAATATCTTATTAGCGTAATTCTGCGATTGGCATAGTTAAGCCAGCC
For B1, the binding result in data set [1] is listed as “binds”. For the molecule CGTAGTCTAGTGTCGATTAGTTTCCTTGAGACCTTGTGCT (ssDNA) [random ssDNA (RDNA)], in data set [2], the binding result was “no binding”.
